Experimental data published in paper PMC3988174.

B1: MPBQ/MSBQ methyl transferase (natural protein)
chain: MASLMLNGAITFPKGLGSPGSNLHARSIPRPTLLSVTRTSTPRLSVATRCSSSSVSSSRPSAQPRFIQHKKEAYWFYRFLSIVYDHVINPGHWTEDMRDDALEPADLSHPDMRVVDVGGGTGFTTLGIVKTVKAKNVTILDQSPHQLAKAKQKEPLKECKIVEGDAEDLPFPTDYADRYVSAGSIEYWPDPQRGIREAYRVLKIGGKACLIGPVYPTFWLSRFFSDVWMLFPKEEEYIEWFKNAGFKDVQLKRIGPKWYRGVRRHGLIMGCSVTGVKPASGDSPLQLGPKEEDVEKPVNNPFSFLGRFLLGTLAAAWFVLIPIYMWIKDQIVPKDQPI
B2: Lactoylglutathionelyase (natural protein)
chain: MASEARESPANNPGLSTNRDEATKGYIMQQTMFRIKDPKASLDFYSRVLGMSLLKRLDFSEMKFSLYFLGYEDTTTAPTDPTERTVWTFGQPATIELTHNWGTESDPEFKGYHNGNSEPRGFGHIGVTVDDVHKACERFEELGVEFAKKPNDGKMKNIAFIKDPDGYWIEIFDLKTIGTTTVNAA
B3: Tryptophan synthase, beta subunit 1 (natural protein)
chain: MAASGTSATFRASVSSAPSSSSQLTHLKSPFKAVKYTPLPSSRSKSSSFSVSCTIAKDPPVLMAAGSDPALWQRPDSFGRFGKFGGKYVPETLMHALSELESAFYALATDDDFQRELAGILKDYVGRESPLYFAERLTEHYRRENGEGPLIYLKREDLNHTGAHKINNAVAQALLAKRLGKKRIIAETGAGQHGVATATVCARFGLECIIYMGAQDMERQALNVFRMRLLGAEVRGVHSGTATLKDATSEAIRDWVTNVETTHYILGSVAGPHPYPMMVRDFHAVIGKETRKQALEKWGGKPDVLVACVGGGSNAMGLFHEFVNDTEVRMIGVEAAGFGLDSGKHAATLTKGDVGVLHGAMSYLLQDDDGQIIEPHSISAGLDYPGVGPEHSFFKDMGRAEYYSITDEEALEAFKRVSRLEGIIPALETSHALAYLEKLCPTLSDGTRVVLNFSGRGDKDVQTVAKYLDV
B4: Protein LURP-one-related 15 Protein (natural protein)
chain: MEQPYVYAYPQGSGPSGAPTPQAGGVVVDPKYCAPYPIDMAIVRKMMSLTDGNFVITDVNGNLLFKVKEPVFGLHDKRVLLDGSGTPVVTLREKMVSMHDRWQVFRGGSTDQRDLLYTVKRSSMLQLKTKLDVFLGHNKDEKRCDFRVKGSWLERSCVVYAGESDAIVAQMHRKHTVQSVFLGKDNFSVTVYPNVDYAFIASLVVILDDVNREDRAA
B5: GLNB1-like protein (natural protein)
chain: MAASMTKPISITSLGFYSDRKNIAFSDCISICSGFRHSRPSCLDLVTKSPSNNSRVLPVVSAQISSDYIPDSKFYKVEAIVRPWRIQQVSSALLKIGIRGVTVSDVRGFGAQGGSTERHGGSEFSEDKFVAKVKMEIVVKKDQVESVINTIIEGARTGEIGDGKIFVLPVSDVIRVRTGERGEKAEKMTGDMLSPS
B6: Translationally controlled tumor protein (natural protein)
chain: MLVYQDLLTGDELLSDSFPYKEIENGILWEVEGKWVTVGAVDVNIGANPSAEEGGEDEGVDDSTQKVVDIVDTFRLQEQPTYDKKGFIAYIKKYIKLLTPKLSEEDQAVFKKGIEGATKFLLPRLSDFQFFVGEGMHDDSTLVFAYYKEGSTNPTFLYFAHGLKEVKC
B7: Sugar transporter EDR6-like 7 (natural protein)
chain: MSKASDAVREPLVDKNMAGSKPDQPWMVYLSTFVAVCGSFAFGSCAGYSSPAQAAIRNDLSLTIAEFSLFGSLLTFGAMIGAITSGPIADLVGRKGAMRVSSAFCVVGWLAIIFAKGVVALDLGRLATGYGMGAFSYVVPIFIAEIAPKTFRGALTTLNQILICTGVSVSFIIGTLVTWRVLALIGIIPCAASFLGLFFIPESPRWLAKVGRDTEFEAALRKLRGKKADISEEAAEIQDYIETLERLPKAKMLDLFQRRYIRSVLIAFGLMVFQQFGGINGICFYTSSIFEQAGFPTRLGMIIYAVLQVVITALNAPIVDRAGRKPLLLVSATGLVIGCLIAAVSFYLKVHDMAHEAVPVLAVVGIMVYIGSFSAGMGAMPWVVMSEIFPINIKGVAGGMATLVNWFGAWAVSYTFNFLMSWSSYGTFLIYAAINALAIVFVIAIVPETKGKTLEQIQAIVNP
B8: Small GTP-binding protein (natural protein)
chain: MAMASAMDLSSPPTFFLSGTSTSSPSLRRLSSISVSGFRRHSNRKLQILCQATAGTEPQSGLSVSGSKLAARSGQDRLLKVPISNIRNFSIIAHIDHGKSTLADKLLQVTGTVQNRDMKEQFLDNMDLERERGITIKLQAARMRYVYEDTPFCLNLIDTPGHVDFSYEVSRSLAACEGALLVVDASQGVEAQTLANVYLALENNLEIIPVLNKIDLPGAEPEKVLREIEEVIGLDCSKAIFCSAKEGIGITEILDAIVQRIPAPLDTAGKPLRALIFDSYYDPYRGVIVYFRVIDGKVKKGDRIFFMASGKDYFADEVGVLSPNQIQVDELYAGEVGYIAASVRSVADARVGDTITHYSRKAESSLPGYEEATPMVFCGLFPVDADQFPDLRDALEKLQLNDAALKFEPETSSAMGFGFRCGFLGLLHMEIVQERLEREYNLNLITTAPSVVYRVNSVNGDTTLCSNPSRLPDPGQRKSVEEPYVKIELLTPKDYIGALMELAQERRGEFKEMKYIAENRASILYELPLAEMVGDFFDQLKSRTKGYASMEYSVIGYRESDLIKLDILINAEMVEPLSTIVHRDKAYSVGRALTQKLKELIPRQMFKVPIQACIGSKVIASEALSAIRKDVLAKCYGGDISRKKKLLKKQAAGKKRMKAIGRVDVPQEAFMAVLKLEREVL
B9: Photosystem II subunit T (natural protein)
chain: MASMTMTATFFPAVAKVPSATGGRRLSVVRASTSDNTPSLEVKEQSSTTMRRDLMFTAAAAAVCSLAKVAMAEEEEPKRGTEAAKKKYAQVCVTMPTAKICRY
B10: Glutathione S-transferase PHI 2 (natural protein)
chain: MAGIKVFGHPASIATRRVLIALHEKNLDFELVHVELKDGEHKKEPFLSRNPFGQVPAFEDGDLKLFESRAITQYIAHRYENQGTNLLQTDSKNISQYAIMAIGMQVEDHQFDPVASKLAFEQIFKSIYGLTTDEAVVAEEEAKLAKVLDVYEARLKEFKYLAGETFTLTDLHHIPAIQYLLGTPTKKLFTERPRVNEWVAEITKRPASEKVQ
B11: CCR-like protein (natural protein)
chain: MQGALFIKPTILLPLPSSVSSPKLTFLLPHATKASRLSSLRSNNSSSSSSLTSDPNTVDYNSSILSVFPAEACEVISGYACSADIYPEVKLDTKPVSRPVASEPVDREYEEYNSPKTVFREEACDDLGGEFCEPDFQKDAN
B12: 5′-Adenylylsulfate reductase 2 (natural protein)
chain: MALAVTSSSTAISGSSFSRSGASSESKALQICSIRLSDRTHLSQRRYSMKPLNAESHSRSESWVTRASTLIAPEVEEKGGEVEDFEQLAKKLEDASPLEIMDKALERFGDQIAIAFSGAEDVALIEYARLTGKPFRVFSLDTGRLNPETYRLFDAVEKQYGIRIEYMFPDAVEVQALVRNKGLFSFYEDGHQECCRVRKVRPLRRALKGLKAWITGQRKDQSPGTRSEIPIVQVDPVFEGLDGGVGSLVKWNPLANVEGADVWNFLRTMDVPVNALHAQGYVSIGCEPCTRPVLPGQHEREGRWWWEDAKAKECGLHKGNIKEEDGAADSKPAAVQEIFESNNVVALSKGGVENLLKLENRKEAWLVVLYAPWCPFCQAMEASYIELAEKLAGKGVKVAKFRADGEQKEFAKQELQLGSFPTILLFPKRAPRAIKYPSEHRDVDSLMSFVNLLR
B13: Oxygen-evolving enhancer protein 3-2 (natural protein)
chain: MAQAVTSMAGLRGASQAVLEGSLQINGSNRLNISRVSVGSQRTGLVIRAQQNVSVPESSRRSVIGLVAAGLAGGSFVKAVFAEAIPIKVGGPPLPSGGLPGTDNSDQARDFSLALKDRFYIQPLSPTEAAARAKDSAKEIINVKSFIDKKAWPYVQNDLRLRASYLRYDLNTVISAKPKEEKQSLKDLTAKLFQTIDNLDYAARSKSSPDAEKYYSETVSSLNNVLAKLG
B14: Fe superoxide dismutase 1 (natural protein)
chain: MAASSAVTANYVLKPPPFALDALEPHMSKQTLEFHWGKHHRAYVDNLKKQVLGTELEGKPLEHIIHSTYNNGDLLPAFNNAAQAWNHEFFWESMKPGGGGKPSGELLALLERDFTSYEKFYEEFNAAAATQFGAGWAWLAYSNEKLKVVKTPNAVNPLVLGSFPLLTIDVWEHAYYLDFQNRRPDYIKTFMTNLVSWEAVSARLEAAKAASA
B15: Geranylgeranyl reductase (natural protein)
chain: MLFSGSAIPLSSFCSLPEKPHTLPMKLSPAAIRSSSSSAPGSLNFDLRTYWTTLITEINQKLDEAIPVKHPAGIYEAMRYSVLAQGAKRAPPVMCVAACELFGGDRLAAFPTACALEMVHAASLIHDDLPCMDDDPVRRGKPSNHTVYGSGMAILAGDALFPLAFQHIVSHTPPDLVPRATILRLITEIARTVGSTGMAAGQYVDLEGGPFPLSFVQEKKFGAMGECSAVCGGLLGGATEDELQSLRRYGRAVGMLYQVVDDITEDKKKSYDGGAEKGMMEMAEELKEKAKKELQVFDNKYGGGDTLVPLYTFVDYAAHRHFLLPL
B16: Chloroplast chaperonin 10 (natural protein)
chain: MASTFVCSLPNPFFAFPVKATTPSTANHTLLGSRRGCLRIKAISTKWEPTKVVPQADRVLVRLEDLPIKSSGGVLLPKAAVKFERYLTGEIISVGSEVGQQVGPGKRVLFSDVSAYEVDLGTDARHCFCKESDLLALVE
B17: Putative 3-dehydroquinate synthase (natural protein)
chain: MAANTISLSNVAASKNLNSFQSRAFIAPPTIFFPVASAKSKPGELSLSSTTLSRSRVRAGASQLMNEPLNDQRSISSPTVVEVDLGDRSYPIYIGAGLLDHSELLQRHVHGKRVLVVTNDRVAPLYLDKTIDALTRGNPNVTVESVILPDGEKYKDMDTLMKVFDKAIESRLDRRCTFVALGGGVIGDMCGYAAASYLRGVNFIQIPTTVMAQVDSSVGGKTGINHRLGKNLIGAFYQPQCVLVDTDTLNTLPDREMASGLAEVIKYGLIRDAEFFEWQEKNIEALLARDPAALAFAIKRSCENKADVVSQDEKESGLRATLNLGHTFGHAIETGFGYGEWLHGEAVAAGTVMAVDMSYRLGWIDESIVKRVNKILVRAKLPTTPPESMTVSMFKSIMAVDKKVADGLLRLILLKGPLGNCVFTGDYDREALDATLRAFSKS

Molecular target: atToc132 G-domain bait (Arabidopsis thaliana) (UniProt Q9SLF3)
Sequence (Q9SLF3 456-794): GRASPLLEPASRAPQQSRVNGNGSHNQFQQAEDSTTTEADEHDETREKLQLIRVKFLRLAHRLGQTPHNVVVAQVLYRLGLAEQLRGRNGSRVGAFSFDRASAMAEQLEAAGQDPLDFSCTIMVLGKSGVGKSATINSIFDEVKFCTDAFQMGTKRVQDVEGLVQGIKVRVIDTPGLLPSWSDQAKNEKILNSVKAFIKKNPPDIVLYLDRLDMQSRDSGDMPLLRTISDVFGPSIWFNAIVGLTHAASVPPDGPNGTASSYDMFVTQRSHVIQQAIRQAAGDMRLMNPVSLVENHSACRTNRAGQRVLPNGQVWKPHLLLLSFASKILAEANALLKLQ
Assay: two-hybrid; pairwise split-ubiquitin yeast two-hybrid of isolated NubG-preys with Toc159G, Toc132G or Toc132AG bait in NMY51; growth on SD-LWHA (3-AT) and quantitative β-Gal assay, activity relative to a reference bait set to 100%

In order of rising % increase in strength of interaction (β-Gal) with 132G against 159G:
1. B3  19.6%
2. B13  20%
3. B17  27.8%
4. B9  28.9%
5. B4  29.9%
6. B1  30.7%
7. B5  39.8%
8. B6  41%
9. B8  41.1%
10. B16  42.1%
11. B12  44.7%
12. B7  49.3%
13. B10  52%
14. B11  74.4%
15. B15  88%
16. B2  91.5%
17. B14  99.5%
